Results on 14 molecules are retold here after US20260069689A1 (Regeneron, published 2026).

Experiment [1] deals with T1, SARS-CoV2 Spike ecto foldon Trimer expressed with a C-terminal myc-myc-hexahistidine (SARS-CoV-2, UniProt P0DTC2 14-1213).
T1 construct: extracellular domain
Kind of experiment: SPR Biacore, mAb captured by anti-hFc, 37C. (Surface plasmon resonance follows binding to a sensor surface in real time, without labels.)

Experiment [2] concerns the target T1, SARS-CoV2 Spike ecto foldon Trimer …. Kind of experiment: SPR Biacore, mAb captured by anti-hFc, 25C.

B1: mAb14292 (antibody, V domains shown)
VH: EVQLVESGGGLVQPGGSLRLSCVASGFAFSTYEMNWVRQAPGKGLEWVSYISSSGSTIYYADSVKGRLTISRDNVKNSLYLQMNSLRVEDTAIYYCARDAIRNNDILTDPATFDPWGQGTLVTVSS
VL: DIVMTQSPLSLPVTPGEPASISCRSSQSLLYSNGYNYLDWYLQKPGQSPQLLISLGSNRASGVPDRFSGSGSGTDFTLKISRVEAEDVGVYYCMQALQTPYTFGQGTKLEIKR
B1: in experiment [1], binding was characterised by a dissociation constant (Kd) of 11500 pM; the koff (in general, a measure of how fast the partners let go of each other) was 0.00682 s⁻¹; the kon – broadly, a measure of how fast the partners come together – came out at 592000 M⁻¹ s⁻¹; the t½ (commonly the time in which the quantity being followed falls by half) turned out to be 0.0283 h. In addition, in experiment [2], binding was characterised by a dissociation constant (Kd) of 7210 pM, the koff came to 0.00421 s⁻¹, the kon came to 584000 M⁻¹ s⁻¹ and the t½ worked out at 0.045 h.

B2: mAb15159 (antibody, V domains shown)
VH: EVQLVESGGGLVQPGGSLRLSCAASGITVSSNYMTWVRQAPGKGLEWVSLIYSGGSTFYADSVRGRFTISRDNSKNTLYLQMNSLRAEDTAVYYCARDLVVYGMDVWGQGTTVTVSS
VL: DIQLTQSPSSLSASVGDRVTITCRASQGISSYLAWYQQKPGKAPKLLIYAASTLQSGVPSRFSGSGSGTDFTLTISSLQPEDFATYYCQHLNSDPHTFGQGTKLEIKR
For the molecule B2, in experiment [1], the Kd (usually a measure of binding affinity in units of concentration) is 68.6 pM, the koff came out at 3.22e-05 s⁻¹, the kon amounted to 467000 M⁻¹ s⁻¹ and the t½ turned out to be 5.99 h. Besides, in experiment [2], binding was put at a Kd of 231 pM, the koff amounted to 2.02e-05 s⁻¹, the kon turned out to be 87500 M⁻¹ s⁻¹ and the t½ turned out to be 9.53 h.

B3: mAb14232 (antibody, V domains shown)
VH: QITLKESGPTLVKPTQTLTLTCTFSGFSLSASGVGVGWIRQPPGKALEWLALIYWDDDKRYSPSLKSRLTITKDTSKNQVVLTMTNMDPVDTATYYCAQHKVATIFDYWGQGTLVTVSS
VL: QSALTQPPSASGSPGQSVTISCTATSSDVGNYNYVSWYQQHPGKAPKLMIYEVTKRPSGVPDRFSGSKSGNTASLTVSGLQAEDEADYYCSSYAGSWGVFGGGTKLTVLG
In experiment [1], B3 displayed a Kd of 177 pM, a koff of 0.000133 s⁻¹, a kon of 751000 M⁻¹ s⁻¹ and a t½ of 1.45 h. In addition, in experiment [2], binding was put at a Kd of 195 pM, the koff was 0.000149 s⁻¹, the kon is 763000 M⁻¹ s⁻¹ and the t½ was 1.29 h.

B4: mAb14280 (antibody, V domains shown)
VH: QVQLVQSGAEVKKPGASVRVSCKASGYTFTGNYIHWVRQAPGQGLEWMAWINPNSGGKNYAQKFQGRVTLTRDTSVNTAYMELSRLRSDDTAMYYCARDVNYNILTGPGGLWGQGTLVTVSS
VL: QSALTQPPSASGSPGQSVTISCTGTSSDVGGYNFVSWYQQHPGKAPKLMIYEVSKRPSGVPDRFSGSKSGNTASLTVSGLQAEDEADYYCSSYAGSNNFVFGTGTKVTVLG
As to B4, in experiment [1], binding was put at a Kd of 29 pM, the koff turned out to be 2.86e-05 s⁻¹, the kon came out at 985000 M⁻¹ s⁻¹ and the t½ turned out to be 6.73 h. In experiment [2], this molecule showed a Kd of 13.6 pM, a koff of 2.69e-05 s⁻¹, an on-rate (kon) of 1.99e+06 M⁻¹ s⁻¹ and a t½ of 7.14 h.

B5: mAb14234 (antibody, V domains shown)
VH: QVQLVESGGGVVQPGRSLRLSCAASGFTFSSYGIHWVRQAPGKGLEWVAIIWYDGSEKYYADSVKGRFTISRDNSKNTLFLQMNSLEAEDTAVYYCARGPDLLTGYYNYFYYGMDVWGQGTTVTVSS
VL: QSVLTQPPSVSGAPGQRVTISCTGSSSNIGIGYDVHWYQQLPGTVPKLLIYGNTNRPSGVPDRFSGSKSGTSASLAITGLQAEDEADYYCQSYDSSLSSYVFGTGTKVTVLG
In experiment [1], B5 yielded a Kd of 102 pM, a koff of 7.16e-05 s⁻¹, a kon of 699000 M⁻¹ s⁻¹ and a t½ of 2.69 h. In experiment [2], this molecule yielded a Kd of 77.5 pM, a dissociation rate constant (koff) of 5.48e-05 s⁻¹, an on-rate (kon) of 707000 M⁻¹ s⁻¹ and a t½ of 3.51 h.

B6: mAb14285 (antibody, V domains shown)
VH: QVQLVQSGAEVKKPGASVKVSCKASGYTFTGYFIHWVRQAPGQGLEWMGWISPISGGTNYAQKFQGRVTVTRDTSITTAYMELSRLTSDDTAVYHCAREGGTWKGDFDYWGQGTLVTVSS
VL: QSALTQPASVSGSPGQSITISCTGTSSDVESYNLVSWYQQHPGKAPKLMIYEGSKRPSGVSNRFSGSKSGNTASLTISGLQAEDEADYYCSSYAGSSTWVFGGGTKLTVLG
For the molecule B6, in experiment [1], the Kd is 35.9 pM, the koff turned out to be 4.18e-05 s⁻¹, the kon is 1.16e+06 M⁻¹ s⁻¹ and the t½ was determined as 4.61 h. Also, in experiment [2], the dissociation constant (Kd) came out at 17 pM, the koff is 3.98e-05 s⁻¹, the kon was determined as 2.34e+06 M⁻¹ s⁻¹ and the t½ is 4.84 h.

B7: mAb15160 (antibody, V domains shown)
VH: EVQLVESGGGLVQPGGSLRLSCSASGFTFSRYAMYWVRQAPGKGLEYVSAISSDGGSTYDADSVKGRFTISRANSKNTLYLQMSSLRAEDTAVYYCVKGLRELLYYYYGMDVWGQGTTVTVSS
VL: DIQMTQSPSSLSASVGDRVTITCRAGQSISSFLNWYQQKPGKAPKLLIYAASSLQSGVPSRFSGSGSGTDFTLTISSLQPEDFATYYCQQSYITPFTFGPGTKVDIKR
In experiment [1], B7 gave a Kd of 132 pM, a koff of 0.000167 s⁻¹, a kon of 1.26e+06 M⁻¹ s⁻¹ and a t½ of 1.15 h. In experiment [2], binding was put at a Kd of 102 pM, the koff worked out at 3.1e-05 s⁻¹, the kon stood at 304000 M⁻¹ s⁻¹ and the t½ turned out to be 6.21 h.

B8: mAb15157 (antibody, V domains shown)
VH: EVQLVESGGALVQPGGSLRLSCAASGFPFTIYAMTWVRQAPGKGLEWVSVITGSGDSTYYADSVKGRFTISRDNSKNTLYLQMNSLRAEDTAVYYCVKTGEGFFYYYYGMDVWGQGTTVTVSS
VL: QSVLTQPPSVSAAPGQKVTISCSGSSSNIGNSYISWYQQLPGTAPKLLIYVNNKRPSGIPDRFSGSKSGTSATLGITGLQTGDEADYYCGTWDSSLSAGVFGSGTKVTVLG
In experiment [1], B8 registered a Kd of 141 pM, a koff of 0.00024 s⁻¹, a kon of 1.7e+06 M⁻¹ s⁻¹ and a t½ of 0.803 h. Also, in experiment [2], the Kd worked out at 308 pM, the koff turned out to be 9.28e-05 s⁻¹, the kon turned out to be 302000 M⁻¹ s⁻¹ and the t½ stood at 2.08 h.

B9: mAb14230 (antibody, V domains shown)
VH: EVQLVESGGGLIQPGRSLRLSCAASGFTFDDYAMHWVRQAPGKGLEWVSGISWNSVSIDYADSVKGRFTISRDNAKNSLYLQMTSLTVEDTALYYCAKAFGYETLTGSDYFAYWGPGTLVTVSS
VL: EIVLTQSPGTLSLSPGERATLSCRASQTVISTYLAWYQQKPGQSPRLLIYGASSRATGIPDRFSGSGSGTDFTLTISRLEPEDFAVYYCQQYGSSPQLTFGGGTKVEIKR
In experiment [1], B9 showed a Kd of 99.1 pM, a koff of 8.97e-05 s⁻¹, an on-rate (kon) of 906000 M⁻¹ s⁻¹ and a t½ of 2.14 h. In experiment [2], the affinity, expressed as Kd, was 40.4 pM; the koff was determined as 6.09e-05 s⁻¹; the on-rate constant (kon) is 1.51e+06 M⁻¹ s⁻¹; the t½ is 3.16 h.

B10: mAb14256 (antibody, V domains shown)
VH: QVQLQESGPGLVKPSETLSLTCTVSGGSISSHYWSWIRQPPGKGLEWIGYIYYSGSSNYNPSLKSRVTISVDTSKNQFSLKLNSVTAADTAVYYCARHYDILTGFDWFDPWGQGTLVTVSS
VL: QSVLTQPPSVSGAPGQRVTISCTGSSSNIGTHYDVHWYQQLPGTAPKLLIYGNSNRPSGVPDRFSGSKSGTSASLAITGLQAEDEADYYCQSFDNSLTAPYVFGTGTKVTVLG
In experiment [1], B10 came in with a dissociation constant (Kd) of 304 pM, a koff of 0.000242 s⁻¹, a kon of 796000 M⁻¹ s⁻¹ and a t½ of 0.795 h. In addition, in experiment [2], the Kd is 129 pM, the koff worked out at 0.000189 s⁻¹, the kon came to 1.47e+06 M⁻¹ s⁻¹ and the t½ amounted to 1.02 h.

B11: mAb14282 (antibody, V domains shown)
VH: QVQLVQSGAEVKKPGASVKVSCKASGYIFTDHYMHWVRQAPGQGLEWMGWINPNSGATNYAQNFQGRVTMTRDTSIITVYMELSRLRSDDTAVYYCARDSSPYMIRYTMDVWGQGTTITVSS
VL: QSALTQPASVSGSPGQSITISCTGTSSDVGSYNLVSWYQQHPGKAPKLMIYELTKRPSGVSNRFSGSKSGNTASLTISGLQAEDEADYYCSSYRGSVTDVVFGGGTKLTVLG
For the molecule B11, in experiment [1], the dissociation constant Kd was 162 pM, the dissociation rate constant (koff) was found to be 0.000171 s⁻¹, the kon was 1.05e+06 M⁻¹ s⁻¹ and the t½ stood at 1.13 h. Moreover, in experiment [2], binding was put at a Kd of 62.4 pM, the koff was 0.000133 s⁻¹, the kon came out at 2.14e+06 M⁻¹ s⁻¹ and the t½ turned out to be 1.44 h.

B12: mAb15158 (antibody, V domains shown)
VH: EVQLVESGGGLVQPGGSLRLSCAASGFSFSSNWMSWVRQAPGKGLEWVGNINQDGSEKYYVDSVEGRFTISRDNAKKSLYLQMNSLRAEDTAVYYCARDLGVLWFGDFVDWGQGALVTVSS
VL: DIQMTQSPSSLSASVGDRVTITCRASQAISNSLAWYQQKPGKAPKLLLYAASTLESGVPSRFSGSGSGTDYTLTISSLQPEDFATYYCLQYYGSPRTFGQGTKVEIKR
Take B12: in experiment [1], the Kd amounted to 54.1 pM, the koff came to 4.07e-05 s⁻¹, the kon stood at 758000 M⁻¹ s⁻¹ and the t½ was 4.73 h. In experiment [2], this molecule gave a Kd of 153 pM, an off-rate constant (koff) of 1.4e-05 s⁻¹, a kon of 91500 M⁻¹ s⁻¹ and a t½ of 13.8 h.

B13: mAb14281 (antibody, V domains shown)
VH: QVQLVQSGADVKKPGASVKVSCKTSGYIFTGYYIHWVRQAPGQGLEWMGWINPNSGGTNSAQKFQGRVTMTRDTSISTVYMELSRLRSDDTAVYYCAKSNSFSVLDYNFDYWGQGTLVTVSS
VL: SSELTQDPAVSVALGQTVRITCQGDSLRSYYASWYQQKPGQAPVLVIYDKNNRPSGIPDRFSGSSSGNTASLTITGAQAEDEADYYCNSRDSSRNHLVVFGGGTKLTVLG
On to B13, for which, in experiment [1], the Kd was found to be 139 pM, the off-rate constant (koff) was 0.000116 s⁻¹, the kon was 834000 M⁻¹ s⁻¹ and the t½ came to 1.66 h. For the same molecule, in experiment [2], binding was characterised by a dissociation constant (Kd) of 97 pM, the koff was 8.09e-05 s⁻¹, the on-rate (kon) came to 834000 M⁻¹ s⁻¹ and the t½ turned out to be 2.38 h.

B14: mAb15156 (antibody, V domains shown)
VH: QLQLQESGPGLVKSSETLSLTCTVSASITGSTYYWGWIRQPPGKGLEWIGSIYYSGTTYYKASLKSRVTISVDTSKNQFSLKLTSVTVADTAVYYCVSHLLGNYHKYGMDVWGQGTTVTVSS
VL: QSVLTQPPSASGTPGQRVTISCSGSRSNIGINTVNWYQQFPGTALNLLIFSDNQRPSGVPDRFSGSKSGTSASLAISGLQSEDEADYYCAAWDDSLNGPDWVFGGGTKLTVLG
With B14, in experiment [1], the Kd amounted to 112 pM, the koff was determined as 0.000212 s⁻¹, the kon was determined as 1.89e+06 M⁻¹ s⁻¹ and the t½ turned out to be 0.908 h. Also, in experiment [2], binding was characterised by a dissociation constant (Kd) of 193 pM, the dissociation rate constant (koff) turned out to be 6.61e-05 s⁻¹, the kon stood at 342000 M⁻¹ s⁻¹ and the t½ was determined as 2.91 h.
